# Measured values taken from patent publication US20250340661A1, “ANTI CD40 ANTIBODY, ANTIGEN BINDING FRAGMENT AND MEDICAL USE THEREOF” (Jiangsu Hengrui Pharmaceuticals Co., Ltd., priority 2021, published 2025).
# Legend:
# Format in all cases: cell-based
# CD40 [1] = biological target: T1, CD40 (Homo sapiens, UniProt P25942); experiment: HEK-Blue CD40L reporter gene cell activity of human-rabbit chimeric anti-CD40 antibodies; design: host or cells: HEK-Blue CD40L cells; settings: HEK-Blue CD40L cells, 25 ng/mL CD40L + anti-His antibody
# T1 sequence (P25942 21-277): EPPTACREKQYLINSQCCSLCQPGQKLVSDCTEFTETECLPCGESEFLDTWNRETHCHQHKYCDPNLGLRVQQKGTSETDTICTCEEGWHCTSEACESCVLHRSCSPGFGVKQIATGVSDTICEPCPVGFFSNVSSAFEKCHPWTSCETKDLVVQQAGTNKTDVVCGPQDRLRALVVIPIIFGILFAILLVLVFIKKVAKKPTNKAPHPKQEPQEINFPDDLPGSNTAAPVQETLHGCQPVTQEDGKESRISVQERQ
# Experimental: HEK-Blue CD40L cells were purchased from Invivogen (Cat. #hkb-cd40). The cells were stably transfected with the human CD40 gene and the NF-kB-mediated SEAP genome. The activation level of the CD40 signaling pathway can be characterized by detecting the secreted SEAP in the supernatant using QUANTI-Blue, the substrate of SEAP. In this experiment, the in vitro antagonist activity of anti-CD40 antibodies was assessed according to IC50 by detecting the activation of HEK-Blue CD40L cells by CD40L. HEK-Blue CD40L cells were cultured in a DMEM medium containing 10% FBS, 100 μg/mL Zeocin and 30 μg/mL Blasticidin and passaged 2-3 times in a week at a ratio of 1:5 or 1:10. During passaging, the medium was pipetted off, and the cell layer was rinsed with 5 mL of 0.25% pancreatin. Then the pancreatin was pipetted off, the cells were digested in an incubator for 3-5 min, and then a fresh medium was added to resuspend cells. 100 μL of cell suspension was added to a 96-well cell culture plate at a density of […]. The medium was DMEM containing 10% FBS, 100 μg/mL Zeocin and 30 μg/mL Blasticidin. Only 100 μL of sterile water was added to the periphery of the 96-well plate. […] The absorbance at 630 nm was measured with a microplate reader (Thermo MultiSkanFc), and IC50 values were calculated and used to assess the in vitro cell activity of the anti-CD40 antibodies.
# CD40 [2] = biological target: T1, CD40; experiment: HEK-Blue CD40L reporter gene cell activity of humanized anti-CD40 antibodies; design: host or cells: HEK-Blue CD40L cells; settings: read-out: IC50 inhibition of CD40 reporter gene cell activity
# Experimental: HEK-Blue CD40L cells were purchased from Invivogen (Cat. #hkb-cd40). The cells were stably transfected with the human CD40 gene and the NF-kB-mediated SEAP genome. The activation level of the CD40 signaling pathway can be characterized by measuring the amount of secreted SEAP in the supernatant using QUANTI-Blue, the substrate of SEAP. In the assays, the inhibitory effects of the CD40 antagonistic antibodies on the CD40L-induced HEK-Blue CD40L cell activation were measured, and the in vitro cell activity of the CD40 antagonistic antibodies was assessed based on IC50. HEK-Blue CD40L cells were cultured in a DMEM medium containing 10% FBS, 100 μg/mL Normocin, 100 μg/mL Zeocin and 30 μg/mL Blasticidin, with 2-3 passages a week. HEK-Blue CD40L cells were plated at 5E4/well into a 96-well cell culture plate (the medium was DMEM, 10% FBS, 100 μg/mL Normocin) and incubated overnight. […] CD40L-his (R&D, 2706-CL-025) and anti-His antibody (R&D, MAB050-500) were added, and the plate was incubated overnight. After cell centrifugation, 20 μL of the cell supernatant was transferred to a new 96-well white plate, and 180 μL of QUANTI-Blue substrate solution was added. The plate was incubated in the dark for 15 min. The absorbance at 620 nm was measured with an Envision microplate reader, and IC50 values were calculated and used to assess the in vitro cell activity of the CD40 antagonistic antibodies.
# CD40 [3] = biological target: T1, CD40; experiment: DC cell activation assay system (monocyte-derived DCs, CD40L stimulation); design: endogenous in cells; host or cells: human PBMCs (CD19+ B cells read out)
# Excerpt: CD40 is highly expressed on dendritic cells (DCs), and CD40L, upon binding to CD40, can induce DC activation, up-regulate the expression of multiple activation markers on the DC Cell surface, and promote the secretion of multiple inflammatory factors from DCs, further amplifying immune responses. CD40 antagonistic antibodies block the binding of CD40L to CD40, thereby eliminating the immune activation process of DC cells.
# Monocytes were sorted and enriched from fresh primary human peripheral blood PBMCs using the EsaySep™ human CD14 sorting kit (Stemcell, 19359), and differentiated for 6 days with RPMI-1640 medium (10% FBS, 1% penicillin-streptomycin), 50 ng/mL IL-4 (PeproTech, 200-04) and 50 ng/mL GM-CSF (PeproTech, 300-03). On day 7, the differentiated DC cells were plated at 1E5/well into a 96-well cell culture plate. Serially diluted test antibodies were added to the wells, and the cells were co-incubated at 37° C. in 5% CO2 for 0.5 h. CD40L-his and an anti-His antibody were then added to each well at final concentrations. After 48 h of culture, the level of DC cell activation was measured by flow cytometry: after centrifugation, the supernatant was removed, and the cells were washed twice with FACS buffer (PBS+2% FBS) and stained at room temperature for 15 min with 100 μL of Fixable viability dye EF780 (Invitrogen, 65086514) diluted at 1:1000. The cells were washed twice and then blocked at room temperature for 10 min with 100 μL of human Fc blocker (BD, 564220) diluted at 1:200. After centrifugation, the cells were incubated at 4° C. for 0.5 h with flow cytometry antibodies (Alexa Fluor®700 anti-human CD11c (Biolegend, 337220), Brilliant Violet 421™ anti-human CD80 (Biolegend, 305221), and APC anti-human CD86 (Biolegend, 305412)) diluted at 1:200. After centrifugation, the supernatant was removed, the cells were washed twice with FACS buffer and then resuspended in 200 μL of PBS, and the fluorescence intensity on the cell surface was measured by flow cytometry (BD FACS Celesta).
# In addition, the level of cytokine secretion in the supernatant was measured after 24 h (TNFα, Cisbio, 62[…]) and 48 h (IL-12/23 p40, Novus, VAL121) of culture. According to the results shown in Table 14 and FIGS. 3A to 3D, 9E6-L4H2 and 2F12-L4H2 have similar DC cell inhibition activity to the control antibody CFZ533.
# With reference to the method in Example 11, the inhibitory activity of the anti-CD40 antibodies 2F12-L4H2-AAYTE and 9E6-L4H2-AAYTE, which carry the AAYTE mutation in the Fc, in the DC cell activation assay system was measured.
substance,measurement,setting,value
"CFZ533: anti-CD40 antagonistic antibody (iscalimab), positive control; variable regions from U.S. Pat. No. 8,277,810B [reference compound]",IC50,CD40 [1],272 pM
same,IC50,CD40 [2]; Assay 1,360 pM
same,IC50,CD40 [2]; Assay 2,350 pM
same,IC50,"CD40 [3]; 48 h culture, read-out: IC50 in DC cell activation assay system, CD80 MFI",1190 pM
same,IC50,"CD40 [3]; 48 h culture, read-out: IC50 in DC cell activation assay system, CD86 MFI",1930 pM
same,IC50,"CD40 [3]; supernatant, 24 h, read-out: IC50 in DC cell activation assay system, TNFα",350 pM
same,IC50,"CD40 [3]; supernatant, 48 h, read-out: IC50 in DC cell activation assay system, IL-12/23 p40",680 pM
